Two molecules from patent publication US20170183413A1 (CELLECTIS, published 2017) can be followed below.

The assay concerns the target T1, CD123-Fc protein (fusion of the extracellular domain of the human CD123 protein with a murine IgG1 Fc … (human; mouse, UniProt P26951 19-305).
T1 construct: extracellular domain; also called fusion protein; not shown: murine IgG1 Fc fragment
T1 sequence (looked up): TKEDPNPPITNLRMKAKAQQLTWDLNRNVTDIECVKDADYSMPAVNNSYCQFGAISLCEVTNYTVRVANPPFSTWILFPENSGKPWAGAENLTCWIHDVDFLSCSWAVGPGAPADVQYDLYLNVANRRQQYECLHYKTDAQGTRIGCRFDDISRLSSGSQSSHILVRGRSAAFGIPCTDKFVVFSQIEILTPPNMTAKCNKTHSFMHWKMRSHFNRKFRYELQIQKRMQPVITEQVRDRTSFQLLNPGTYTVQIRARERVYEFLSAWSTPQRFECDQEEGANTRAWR
Kind of assay: flow cytometry on transduced T-cells, CD123-Fc fusion protein detected with PE-conjugated anti-mouse Fc. How it is done: Transduction of T-cells with recombinant lentiviral vectors expression the CAR was carried out three days after T-cell purification/activation. Lentiviral vectors were produced by Vectalys SA (Toulouse, France) by transfection of genomic and helper plasmids in HEK-293 cells. Transductions were carried out at a multiplicity of infection of 5, using 10⁶ cells per transduction. CAR detection at the surface of T-cells was done using a recombinant protein consisting on the fusion of the extracellular domain of the human CD123 protein together with a murine IgG1 Fc fragment (produced by LakePharma). Binding of this protein to the CAR molecule was detected with a PE-conjugated secondary antibody (Jackson Immunoresearch) targeting the mouse Fc portion of the protein, and analyzed by flow cytometry. […]
CAR detection was done using a fusion protein in which the extracellular domain of the human CD123 protein was fused to a mouse IgG1 derived Fc fragment. Binding of the CAR at the cell surface with the CD123 portion of the fusion protein was detected with anti-Fc PE-conjugated antibody and analyzed by flow cytometry. FIG. 9 represents the % of CAR+ or of Blue fluorescent protein (BFP+) cells (measured by FACS analysis) at Day 8 or 10 post transduction for two different donors.
In general terms: A flow cytometer gives signals particle by particle.

B1: 32716-v3 CAR (32716-3, anti-CD123 chimeric antigen receptor, structure V-3: 32716 scFv, CD8alpha hinge, CD8alpha transmembrane domain, 41BB intracellular … (other)
chain: QIQLVQSGPELKKPGETVKISCKASGYIFTNYGMNWVKQAPGKSFKWMGWINTYTGESTYSADFKGRFAFSLETSASTAYLHINDLKNEDTATYFCARSGGYDPMDYWGQGTSVTVSSGGGGSGGGGSGGGGSDIVLTQSPASLAVSLGQRATISCRASESVDNYGNTFMHWYQQKPGQPPKLLIYRASNLESGIPARFSGSGSRTDFTLTINPVEADDVATYYCQQSNEDPPTFGAGTKLELKTTTPAPRPPTPAPTIASQPLSLRPEACRPAAGGAVHTRGLDFACDIYIWAPLAGTCGVLLLSLVITLYCKRGRKKLLYIFKQPFMRPVQTTQEEDGCSCRFPEEEEGGCELRVKFSRSADAPAYQQGQNQLYNELNLGRREEYDVLDKRRGRDPEMGGKPRRKNPQEGLYNELQKDKMAEAYSEIGMKGERRRGKGHDGLYQGLSTATKDTYDALHMQALPPR
notes: Chimeric antigen receptor on the surface of human T cells; 38; In the lentiviral vector the CAR is coupled to BFP through a 2A peptide; also called CAR 32716V3
B1: the binding result is recorded as “binds”.

B2: Klon43-v3 CAR (Klo43-3, anti-CD123 chimeric antigen receptor, structure V-3: Klon43 scFv, CD8alpha hinge, CD8alpha transmembrane domain, 41BB intracellular … (other)
chain: EVKLVESGGGLVQPGGSLSLSCAASGFTFTDYYMSWVRQPPGKALEWLALIRSKADGYTTEYSASVKGRFTLSRDDSQSILYLQMNALRPEDSATYYCARDAAYYSYYSPEGAMDYWGQGTSVTVSSGGGGSGGGGSGGGGSMADYKDIVMTQSHKFMSTSVGDRVNITCKASQNVDSAVAWYQQKPGQSPKALIYSASYRYSGVPDRFTGRGSGTDFTLTISSVQAEDLAVYYCQQYYSTPWTFGGGTKLEIKRTTTPAPRPPTPAPTIASQPLSLRPEACRPAAGGAVHTRGLDFACDIYIWAPLAGTCGVLLLSLVITLYCKRGRKKLLYIFKQPFMRPVQTTQEEDGCSCRFPEEEEGGCELRVKFSRSADAPAYQQGQNQLYNELNLGRREEYDVLDKRRGRDPEMGGKPRRKNPQEGLYNELQKDKMAEAYSEIGMKGERRRGKGHDGLYQGLSTATKDTYDALHMQALPPR
notes: Chimeric antigen receptor on the surface of human T cells (mRNA transfection or lentiviral transduction); 44; In the lentiviral vector the CAR is coupled to BFP through a 2A peptide; also called CAR Klon 43 V3; Klon43 CAR
B2: the binding result is “binds”.
